Here are results for two molecules from PMC6193675 (PLoS ONE, 2018).

This experiment has as its target yeast-displayed unmodified gp140 from HIV strain YU2, fused at its C-terminal to Aga2p (HIV-1 group M subtype B, isolate YU-2, UniProt P35961, strain). The experiment is described as follows: flow cytometry on cells; yeast cells displaying YU2 Env-Aga2p fusions incubated with 100 nM precursor antibody at 4°C for 16-18 h in PBI (PBS pH 7.2, 1% BSA, protease inhibitors); fluorescent secondary antibody. To be noted: one partner purified. On the technique in general: Flow cytometry measures light scatter and fluorescence of single cells or particles in a stream.

B1: reconstructed predicted precursor form of antibody VRC01 (antibody, V domains shown)
VH: not shown
VL: EIVLTQSPATLSLSPGERATLSCRASQSVSSYLAWYQQKPGQAPRLLIYDASNRATGIPARFSGSGSGTDFTLTISSLEPEDFAVYYCQQRSNWPYTFGQGTKLEIK
notes: V(D)J segments with the highest identity to mature VRC01 (IgBLAST), mature HCDR3 kept; Detected with anti-human secondary antibodies; also called precursor for antibody VRC01; VRC01 precursor; source: HEK293T, transfected, purified
Turning to B1, the binding result is recorded as “no binding (tested: 100 nM)”.

B2: reconstructed predicted precursor form of antibody 447-52D (antibody, V domains shown)
VH: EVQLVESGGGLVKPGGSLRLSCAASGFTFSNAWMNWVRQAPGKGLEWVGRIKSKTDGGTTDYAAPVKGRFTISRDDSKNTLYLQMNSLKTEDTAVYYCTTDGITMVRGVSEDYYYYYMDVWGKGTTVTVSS
VL: QSVLTQPPSVSAAPGQKVTISCSGSSSNIGNNYVSWYQQLPGTAPKLLIYDNNKRPSGIPDRFSGSKSGTSATLGITGLQTGDEADYYCGTWDSSLSAGWVFGGGTKLTVL
notes: V(D)J segments with the highest identity to mature 447-52D (IgBLAST), mature HCDR3 kept; Detected with anti-human secondary antibodies; also called precursor for antibody 447-52D; 447-52D precursor; source: HEK293T, transfected, purified
B2: the binding result is given as “no binding (tested: 100 nM)”.
